The values below come from FireProtDB (doi:10.1021/ja068849o).

To fix the notation:
B1: Outer membrane protein A, P0A910 (parent)
chain: MKKTAIAIAVALAGFATVAQAAPKDNTWYTGAKLGWSQYHDTGFINNNGPTHENQLGAGAFGGYQVNPYVGFEMGYDWLGRMPYKGSVENGAYKAQGVQLTAKLGYPITDDLDIYTRLGGMVWRADTKSNVYGKNHDTGVSPVFAGGVEYAITPEIATRLEYQWTNNIGDAHTIGTRPDNGMLSLGVSYRFGQGEAAPVVAPAPAPAPEVQTKHFTLKSDVLFNFNKATLKPEGQAALDQLYSQLSNLDPKDGSVVVLGYTDRIGSDAYNQGLSERRAQSVVDYLISKGIPADKISARGMGESNPVTGNTCDNVKQRAALIDCLAPDRRVEIEVKGIKDVVTQPQA

The data set covers variants of B1. The note with it: Escherichia coli (strain K12); pH 9.2; 37 °C; Urea; Fluorescence; Glycine 10 mM; reversible: Yes; structure 1QJP; whole UniProt chain shown.

For the variant W164A, the “ddG of mutation (higher = less stable)” value was 3.1 kcal/mol, the denaturant m value came out at 2.2 kcal/mol/M, the “denaturant midpoint (higher = more stable)” value (shortened to “denaturant midpoint”) came out at 2.8 M and the unfolding free energy was 6.2 kcal/mol.
For Y189A F191A, in that order: 1.2 kcal/mol, 3.1 kcal/mol/M, 2.6 M and 8.1 kcal/mol.
For F144A W164A, in that order: 3.9 kcal/mol, 2.3 kcal/mol/M, 2.4 M and 5.4 kcal/mol.
Regarding F144A Y162A W164A, the “ddG of mutation (higher = less stable)” value is 6.8 kcal/mol, the denaturant m value came to 2 kcal/mol/M, the “denaturant midpoint” value was 1.2 M and the unfolding free energy amounted to 2.5 kcal/mol.
On to Y76A W78A, for which the “ddG of mutation (higher = less stable)” value is 4.2 kcal/mol, the denaturant m value was 2.4 kcal/mol/M, the “denaturant midpoint” value was found to be 2.1 M and the unfolding free energy came out at 5.1 kcal/mol.
On to Y150A, for which the “ddG of mutation (higher = less stable)” value was found to be 2.7 kcal/mol, the denaturant m value amounted to 2.4 kcal/mol/M, the “denaturant midpoint” value is 2.8 M and the unfolding free energy was found to be 6.6 kcal/mol.
For Y64A, in that order: 3.8 kcal/mol, 2.2 kcal/mol/M, 2.6 M and 5.5 kcal/mol.
The matching figures for F191A: 2.4 kcal/mol, 2.3 kcal/mol/M, 3 M and 6.9 kcal/mol.
The matching figures for Y189A: 0.2 kcal/mol, 3.1 kcal/mol/M, 2.9 M and 9.1 kcal/mol.
For the variant Y76A, the “ddG of mutation (higher = less stable)” value was 2.5 kcal/mol, the denaturant m value is 2.2 kcal/mol/M, the “denaturant midpoint” value came out at 3.1 M and the unfolding free energy turned out to be 6.8 kcal/mol.
On to W36A, for which the “ddG of mutation (higher = less stable)” value turned out to be 2 kcal/mol, the denaturant m value was determined as 2.4 kcal/mol/M, the “denaturant midpoint” value is 3.1 M and the unfolding free energy was found to be 7.3 kcal/mol.
Regarding F144A Y162A, the “ddG of mutation (higher = less stable)” value is 5.3 kcal/mol, the denaturant m value turned out to be 2.1 kcal/mol/M, the “denaturant midpoint” value was 1.9 M and the unfolding free energy worked out at 4 kcal/mol.
For the variant W28A Y64A, the “ddG of mutation (higher = less stable)” value turned out to be 6.4 kcal/mol, the denaturant m value was 1.9 kcal/mol/M, the “denaturant midpoint” value amounted to 1.6 M and the unfolding free energy is 2.9 kcal/mol.
The matching figures for W78A: 2 kcal/mol, 2.4 kcal/mol/M, 3.1 M and 7.3 kcal/mol.
W28A: the “ddG of mutation (higher = less stable)” value turned out to be 3.6 kcal/mol, the denaturant m value came to 1.9 kcal/mol/M, the “denaturant midpoint” value came out at 3 M and the unfolding free energy came to 5.7 kcal/mol.
For F72A, in that order: 1.2 kcal/mol, 2.3 kcal/mol/M, 3.5 M and 8.1 kcal/mol.
Take Y162A W164A: the “ddG of mutation (higher = less stable)” value is 5.7 kcal/mol, the denaturant m value is 2.2 kcal/mol/M, the “denaturant midpoint” value was 1.6 M and the unfolding free energy was determined as 3.6 kcal/mol.
